*1 amine or outer side, *2 acyl side, *3 side chain or, on linkers, in order; H or OH if unused. Where no end group is shown, it is not given here. Side-chain parts run from the residue outwards. The star is where a group is joined. C18 diacid = O=C(O)CCCCCCCCCCCCCCCCC(=O)*; C16 diacid = O=C(O)CCCCCCCCCCCCCCC(=O)*; γGlu = O=C(O)[C@H](CCC(=O)[*:2])N[*:1]; AEEA = NCCOCCOCC(=O)O

The labels stand for the following.
T1: human GIP receptor (human, UniProt P48546 22-466)
T1 sequence (looked up): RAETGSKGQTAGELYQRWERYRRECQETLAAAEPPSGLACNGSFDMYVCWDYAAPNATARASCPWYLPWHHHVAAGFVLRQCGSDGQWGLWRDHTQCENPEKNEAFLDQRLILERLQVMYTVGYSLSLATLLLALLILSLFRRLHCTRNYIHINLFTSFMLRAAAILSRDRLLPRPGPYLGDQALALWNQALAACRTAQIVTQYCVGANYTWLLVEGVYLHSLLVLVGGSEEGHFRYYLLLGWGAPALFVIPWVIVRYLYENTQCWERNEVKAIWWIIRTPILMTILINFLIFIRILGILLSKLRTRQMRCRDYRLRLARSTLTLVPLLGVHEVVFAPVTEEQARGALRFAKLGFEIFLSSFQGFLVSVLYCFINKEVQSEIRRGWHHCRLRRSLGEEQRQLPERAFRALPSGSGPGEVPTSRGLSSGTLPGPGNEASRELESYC

B1: AT627 (peptide)
peptide: EGTFISDYSIAMDKIK(C18 diacid)QQDFVNWLLAQKPSSGAPPPS-OH
modifications: N-terminus assumed
SMILES: CC[C@H](C)[C@H](NC(=O)[C@H](CO)NC(=O)[C@H](Cc1ccc(O)cc1)NC(=O)[C@H](CC(=O)O)NC(=O)[C@H](CO)NC(=O)[C@@H](NC(=O)[C@H](Cc1ccccc1)NC(=O)[C@@H](NC(=O)CNC(=O)[C@@H](N)CCC(=O)O)[C@@H](C)O)[C@@H](C)CC)C(=O)N[C@@H](C)C(=O)N[C@@H](CCSC)C(=O)N[C@@H](CC(=O)O)C(=O)N[C@@H](CCCCN)C(=O)N[C@H](C(=O)N[C@@H](CCCCNC(=O)CCCCCCCCCCCCCCCCC(=O)O)C(=O)N[C@@H](CCC(N)=O)C(=O)N[C@@H](CCC(N)=O)C(=O)N[C@@H](CC(=O)O)C(=O)N[C@@H](Cc1ccccc1)C(=O)N[C@H](C(=O)N[C@@H](CC(N)=O)C(=O)N[C@@H](Cc1c[nH]c2ccccc12)C(=O)N[C@@H](CC(C)C)C(=O)N[C@@H](CC(C)C)C(=O)N[C@@H](C)C(=O)N[C@@H](CCC(N)=O)C(=O)N[C@@H](CCCCN)C(=O)N1CCC[C@H]1C(=O)N[C@@H](CO)C(=O)N[C@@H](CO)C(=O)NCC(=O)N[C@@H](C)C(=O)N1CCC[C@H]1C(=O)N1CCC[C@H]1C(=O)N1CCC[C@H]1C(=O)N[C@@H](CO)C(=O)O)C(C)C)[C@@H](C)CC
B2: AT625 (peptide)
peptide: EGTFISDYSIAMDKIK(C16 diacid)QQDFVNWLLEQKPSSGAPPPS-OH
modifications: N-terminus assumed
SMILES: CC[C@H](C)[C@H](NC(=O)[C@H](CO)NC(=O)[C@H](Cc1ccc(O)cc1)NC(=O)[C@H](CC(=O)O)NC(=O)[C@H](CO)NC(=O)[C@@H](NC(=O)[C@H](Cc1ccccc1)NC(=O)[C@@H](NC(=O)CNC(=O)[C@@H](N)CCC(=O)O)[C@@H](C)O)[C@@H](C)CC)C(=O)N[C@@H](C)C(=O)N[C@@H](CCSC)C(=O)N[C@@H](CC(=O)O)C(=O)N[C@@H](CCCCN)C(=O)N[C@H](C(=O)N[C@@H](CCCCNC(=O)CCCCCCCCCCCCCCC(=O)O)C(=O)N[C@@H](CCC(N)=O)C(=O)N[C@@H](CCC(N)=O)C(=O)N[C@@H](CC(=O)O)C(=O)N[C@@H](Cc1ccccc1)C(=O)N[C@H](C(=O)N[C@@H](CC(N)=O)C(=O)N[C@@H](Cc1c[nH]c2ccccc12)C(=O)N[C@@H](CC(C)C)C(=O)N[C@@H](CC(C)C)C(=O)N[C@@H](CCC(=O)O)C(=O)N[C@@H](CCC(N)=O)C(=O)N[C@@H](CCCCN)C(=O)N1CCC[C@H]1C(=O)N[C@@H](CO)C(=O)N[C@@H](CO)C(=O)NCC(=O)N[C@@H](C)C(=O)N1CCC[C@H]1C(=O)N1CCC[C@H]1C(=O)N1CCC[C@H]1C(=O)N[C@@H](CO)C(=O)O)C(C)C)[C@@H](C)CC
B3: AT624 (peptide)
peptide: EGTFISDYSIAMDKIK(C16 diacid)QQDFVNWLEAQKPSSGAPPPS-OH
modifications: N-terminus assumed
SMILES: CC[C@H](C)[C@H](NC(=O)[C@H](CO)NC(=O)[C@H](Cc1ccc(O)cc1)NC(=O)[C@H](CC(=O)O)NC(=O)[C@H](CO)NC(=O)[C@@H](NC(=O)[C@H](Cc1ccccc1)NC(=O)[C@@H](NC(=O)CNC(=O)[C@@H](N)CCC(=O)O)[C@@H](C)O)[C@@H](C)CC)C(=O)N[C@@H](C)C(=O)N[C@@H](CCSC)C(=O)N[C@@H](CC(=O)O)C(=O)N[C@@H](CCCCN)C(=O)N[C@H](C(=O)N[C@@H](CCCCNC(=O)CCCCCCCCCCCCCCC(=O)O)C(=O)N[C@@H](CCC(N)=O)C(=O)N[C@@H](CCC(N)=O)C(=O)N[C@@H](CC(=O)O)C(=O)N[C@@H](Cc1ccccc1)C(=O)N[C@H](C(=O)N[C@@H](CC(N)=O)C(=O)N[C@@H](Cc1c[nH]c2ccccc12)C(=O)N[C@@H](CC(C)C)C(=O)N[C@@H](CCC(=O)O)C(=O)N[C@@H](C)C(=O)N[C@@H](CCC(N)=O)C(=O)N[C@@H](CCCCN)C(=O)N1CCC[C@H]1C(=O)N[C@@H](CO)C(=O)N[C@@H](CO)C(=O)NCC(=O)N[C@@H](C)C(=O)N1CCC[C@H]1C(=O)N1CCC[C@H]1C(=O)N1CCC[C@H]1C(=O)N[C@@H](CO)C(=O)O)C(C)C)[C@@H](C)CC
B4: AT623 (peptide)
peptide: EGTFISDYSIAMDKIK(C16 diacid)QQDFVEWLLAQAPSSGAPPPS-OH
modifications: N-terminus assumed
SMILES: CC[C@H](C)[C@H](NC(=O)[C@H](CO)NC(=O)[C@H](Cc1ccc(O)cc1)NC(=O)[C@H](CC(=O)O)NC(=O)[C@H](CO)NC(=O)[C@@H](NC(=O)[C@H](Cc1ccccc1)NC(=O)[C@@H](NC(=O)CNC(=O)[C@@H](N)CCC(=O)O)[C@@H](C)O)[C@@H](C)CC)C(=O)N[C@@H](C)C(=O)N[C@@H](CCSC)C(=O)N[C@@H](CC(=O)O)C(=O)N[C@@H](CCCCN)C(=O)N[C@H](C(=O)N[C@@H](CCCCNC(=O)CCCCCCCCCCCCCCC(=O)O)C(=O)N[C@@H](CCC(N)=O)C(=O)N[C@@H](CCC(N)=O)C(=O)N[C@@H](CC(=O)O)C(=O)N[C@@H](Cc1ccccc1)C(=O)N[C@H](C(=O)N[C@@H](CCC(=O)O)C(=O)N[C@@H](Cc1c[nH]c2ccccc12)C(=O)N[C@@H](CC(C)C)C(=O)N[C@@H](CC(C)C)C(=O)N[C@@H](C)C(=O)N[C@@H](CCC(N)=O)C(=O)N[C@@H](C)C(=O)N1CCC[C@H]1C(=O)N[C@@H](CO)C(=O)N[C@@H](CO)C(=O)NCC(=O)N[C@@H](C)C(=O)N1CCC[C@H]1C(=O)N1CCC[C@H]1C(=O)N1CCC[C@H]1C(=O)N[C@@H](CO)C(=O)O)C(C)C)[C@@H](C)CC
B5: AT629 (peptide)
peptide: EGTFISDYSIAMDKIK([AEEA-AEEA-γGlu-C16 diacid])QQDFVNWLLAQKPSSGAPPPS-OH
modifications: N-terminus assumed
SMILES: CC[C@H](C)[C@H](NC(=O)[C@H](CO)NC(=O)[C@H](Cc1ccc(O)cc1)NC(=O)[C@H](CC(=O)O)NC(=O)[C@H](CO)NC(=O)[C@@H](NC(=O)[C@H](Cc1ccccc1)NC(=O)[C@@H](NC(=O)CNC(=O)[C@@H](N)CCC(=O)O)[C@@H](C)O)[C@@H](C)CC)C(=O)N[C@@H](C)C(=O)N[C@@H](CCSC)C(=O)N[C@@H](CC(=O)O)C(=O)N[C@@H](CCCCN)C(=O)N[C@H](C(=O)N[C@@H](CCCCNC(=O)COCCOCCNC(=O)COCCOCCNC(=O)CC[C@H](NC(=O)CCCCCCCCCCCCCCC(=O)O)C(=O)O)C(=O)N[C@@H](CCC(N)=O)C(=O)N[C@@H](CCC(N)=O)C(=O)N[C@@H](CC(=O)O)C(=O)N[C@@H](Cc1ccccc1)C(=O)N[C@H](C(=O)N[C@@H](CC(N)=O)C(=O)N[C@@H](Cc1c[nH]c2ccccc12)C(=O)N[C@@H](CC(C)C)C(=O)N[C@@H](CC(C)C)C(=O)N[C@@H](C)C(=O)N[C@@H](CCC(N)=O)C(=O)N[C@@H](CCCCN)C(=O)N1CCC[C@H]1C(=O)N[C@@H](CO)C(=O)N[C@@H](CO)C(=O)NCC(=O)N[C@@H](C)C(=O)N1CCC[C@H]1C(=O)N1CCC[C@H]1C(=O)N1CCC[C@H]1C(=O)N[C@@H](CO)C(=O)O)C(C)C)[C@@H](C)CC
B6: AT626 (peptide)
peptide: EGTFISDYSIAMDKIK(C16 diacid)QQDFVNWLLEGGPSSGAPPPS-OH
modifications: N-terminus assumed
SMILES: CC[C@H](C)[C@H](NC(=O)[C@H](CO)NC(=O)[C@H](Cc1ccc(O)cc1)NC(=O)[C@H](CC(=O)O)NC(=O)[C@H](CO)NC(=O)[C@@H](NC(=O)[C@H](Cc1ccccc1)NC(=O)[C@@H](NC(=O)CNC(=O)[C@@H](N)CCC(=O)O)[C@@H](C)O)[C@@H](C)CC)C(=O)N[C@@H](C)C(=O)N[C@@H](CCSC)C(=O)N[C@@H](CC(=O)O)C(=O)N[C@@H](CCCCN)C(=O)N[C@H](C(=O)N[C@@H](CCCCNC(=O)CCCCCCCCCCCCCCC(=O)O)C(=O)N[C@@H](CCC(N)=O)C(=O)N[C@@H](CCC(N)=O)C(=O)N[C@@H](CC(=O)O)C(=O)N[C@@H](Cc1ccccc1)C(=O)N[C@H](C(=O)N[C@@H](CC(N)=O)C(=O)N[C@@H](Cc1c[nH]c2ccccc12)C(=O)N[C@@H](CC(C)C)C(=O)N[C@@H](CC(C)C)C(=O)N[C@@H](CCC(=O)O)C(=O)NCC(=O)NCC(=O)N1CCC[C@H]1C(=O)N[C@@H](CO)C(=O)N[C@@H](CO)C(=O)NCC(=O)N[C@@H](C)C(=O)N1CCC[C@H]1C(=O)N1CCC[C@H]1C(=O)N1CCC[C@H]1C(=O)N[C@@H](CO)C(=O)O)C(C)C)[C@@H](C)CC

This experiment deals with T1, human GIP receptor. The experiment is described as follows: cell-based or functional assay.
As to EGTFISDYSIAMDKIK(C18)QQDFVNWLLAQKPSSGAPPPS-OH [AT628], the “cAMP agonism % Emax” value was 0%, the “cAMP antagonism” value amounted to 58.4 nM, the “cAMP antagonism % inhib” value is 94% and the “cAMP antagonism pIC50” value was 7.2.
The matching figures for B1: 0%, 15.9 nM, 97% and 7.8.
The like results for B2 were, in that order, 0%, 3.98 nM, 93% and 8.4.
For B3, the “cAMP agonism % Emax” value was found to be 0%, the “cAMP antagonism” value was found to be 100 nM, the “cAMP antagonism % inhib” value is around 90% and the “cAMP antagonism pIC50” value is around 7.
The matching figures for B4: 0%, 3.16 nM, 98% and 8.5.
The like results for B5 were, in that order, 0%, 17.1 nM, 93% and 7.8.
Consider B6, for which the “cAMP agonism % Emax” value turned out to be 0%, the “cAMP antagonism” value stood at 4.47 nM, the “cAMP antagonism % inhib” value came out at 100% and the “cAMP antagonism pIC50” value turned out to be 8.4.

For the origin of these results see patent US20220298218A1 (ANTAG THERAPEUTICS, published 2022).
